B1: 1D2 SDR mutant HD31A (antibody, IgG1, V domains shown)
VH: QVQLVQSGAEVKKPGASVKVSCEASGYTFTAKYLHWVRQAPGQGLEWMAWINPKSGGTFYAQNFKGRVTVTRDTSINTAYLELTSLRLDDTSTYYCARGRDYYDQGAADLWGQGTMVTVSS
VL: DIQLTQSPSSLSASVGDRVTITCRASQGINSVLAWYQQKPGKAPKLLLYAASKLESGVPSRFSGSGSGTDYTLTISSLQPEDFGTYYCQQYYSPVRTFGQGTKVEIKR
notes: also called X1 A
B2: 1D2 SDR mutant HD31Q (antibody, IgG1, V domains shown)
VH: QVQLVQSGAEVKKPGASVKVSCEASGYTFTQKYLHWVRQAPGQGLEWMAWINPKSGGTFYAQNFKGRVTVTRDTSINTAYLELTSLRLDDTSTYYCARGRDYYDQGAADLWGQGTMVTVSS
VL: DIQLTQSPSSLSASVGDRVTITCRASQGINSVLAWYQQKPGKAPKLLLYAASKLESGVPSRFSGSGSGTDYTLTISSLQPEDFGTYYCQQYYSPVRTFGQGTKVEIKR
notes: also called X1 Q
B3: 1D2 SDR mutant HK32A (antibody, IgG1, V domains shown)
VH: QVQLVQSGAEVKKPGASVKVSCEASGYTFTDAYLHWVRQAPGQGLEWMAWINPKSGGTFYAQNFKGRVTVTRDTSINTAYLELTSLRLDDTSTYYCARGRDYYDQGAADLWGQGTMVTVSS
VL: DIQLTQSPSSLSASVGDRVTITCRASQGINSVLAWYQQKPGKAPKLLLYAASKLESGVPSRFSGSGSGTDYTLTISSLQPEDFGTYYCQQYYSPVRTFGQGTKVEIKR
notes: also called X2 A
B4: 1D2 SDR mutant HD31C (antibody, IgG1, V domains shown)
VH: QVQLVQSGAEVKKPGASVKVSCEASGYTFTCKYLHWVRQAPGQGLEWMAWINPKSGGTFYAQNFKGRVTVTRDTSINTAYLELTSLRLDDTSTYYCARGRDYYDQGAADLWGQGTMVTVSS
VL: DIQLTQSPSSLSASVGDRVTITCRASQGINSVLAWYQQKPGKAPKLLLYAASKLESGVPSRFSGSGSGTDYTLTISSLQPEDFGTYYCQQYYSPVRTFGQGTKVEIKR
notes: also called X1 C
B5: 1D2 SDR mutant HD31W (antibody, IgG1, V domains shown)
VH: QVQLVQSGAEVKKPGASVKVSCEASGYTFTWKYLHWVRQAPGQGLEWMAWINPKSGGTFYAQNFKGRVTVTRDTSINTAYLELTSLRLDDTSTYYCARGRDYYDQGAADLWGQGTMVTVSS
VL: DIQLTQSPSSLSASVGDRVTITCRASQGINSVLAWYQQKPGKAPKLLLYAASKLESGVPSRFSGSGSGTDYTLTISSLQPEDFGTYYCQQYYSPVRTFGQGTKVEIKR
notes: also called X1 W
B6: 1D2 SDR mutant HD31R (antibody, IgG1, V domains shown)
VH: QVQLVQSGAEVKKPGASVKVSCEASGYTFTRKYLHWVRQAPGQGLEWMAWINPKSGGTFYAQNFKGRVTVTRDTSINTAYLELTSLRLDDTSTYYCARGRDYYDQGAADLWGQGTMVTVSS
VL: DIQLTQSPSSLSASVGDRVTITCRASQGINSVLAWYQQKPGKAPKLLLYAASKLESGVPSRFSGSGSGTDYTLTISSLQPEDFGTYYCQQYYSPVRTFGQGTKVEIKR
notes: also called X1 R
B7: 1D2 SDR mutant HD31N (antibody, IgG1, V domains shown)
VH: QVQLVQSGAEVKKPGASVKVSCEASGYTFTNKYLHWVRQAPGQGLEWMAWINPKSGGTFYAQNFKGRVTVTRDTSINTAYLELTSLRLDDTSTYYCARGRDYYDQGAADLWGQGTMVTVSS
VL: DIQLTQSPSSLSASVGDRVTITCRASQGINSVLAWYQQKPGKAPKLLLYAASKLESGVPSRFSGSGSGTDYTLTISSLQPEDFGTYYCQQYYSPVRTFGQGTKVEIKR
notes: also called X1 N
B8: 1D2 SDR mutant HD31E (antibody, IgG1, V domains shown)
VH: QVQLVQSGAEVKKPGASVKVSCEASGYTFTEKYLHWVRQAPGQGLEWMAWINPKSGGTFYAQNFKGRVTVTRDTSINTAYLELTSLRLDDTSTYYCARGRDYYDQGAADLWGQGTMVTVSS
VL: DIQLTQSPSSLSASVGDRVTITCRASQGINSVLAWYQQKPGKAPKLLLYAASKLESGVPSRFSGSGSGTDYTLTISSLQPEDFGTYYCQQYYSPVRTFGQGTKVEIKR
notes: also called X1 E
B9: 1D2 SDR mutant HD31G (antibody, IgG1, V domains shown)
VH: QVQLVQSGAEVKKPGASVKVSCEASGYTFTGKYLHWVRQAPGQGLEWMAWINPKSGGTFYAQNFKGRVTVTRDTSINTAYLELTSLRLDDTSTYYCARGRDYYDQGAADLWGQGTMVTVSS
VL: DIQLTQSPSSLSASVGDRVTITCRASQGINSVLAWYQQKPGKAPKLLLYAASKLESGVPSRFSGSGSGTDYTLTISSLQPEDFGTYYCQQYYSPVRTFGQGTKVEIKR
notes: also called X1 G
B10: 1D2 SDR mutant HK32C (antibody, IgG1, V domains shown)
VH: QVQLVQSGAEVKKPGASVKVSCEASGYTFTDCYLHWVRQAPGQGLEWMAWINPKSGGTFYAQNFKGRVTVTRDTSINTAYLELTSLRLDDTSTYYCARGRDYYDQGAADLWGQGTMVTVSS
VL: DIQLTQSPSSLSASVGDRVTITCRASQGINSVLAWYQQKPGKAPKLLLYAASKLESGVPSRFSGSGSGTDYTLTISSLQPEDFGTYYCQQYYSPVRTFGQGTKVEIKR
notes: also called X2 C
B11: 1D2 SDR mutant HD31P (antibody, IgG1, V domains shown)
VH: QVQLVQSGAEVKKPGASVKVSCEASGYTFTPKYLHWVRQAPGQGLEWMAWINPKSGGTFYAQNFKGRVTVTRDTSINTAYLELTSLRLDDTSTYYCARGRDYYDQGAADLWGQGTMVTVSS
VL: DIQLTQSPSSLSASVGDRVTITCRASQGINSVLAWYQQKPGKAPKLLLYAASKLESGVPSRFSGSGSGTDYTLTISSLQPEDFGTYYCQQYYSPVRTFGQGTKVEIKR
notes: also called X1 P
B12: 1D2 SDR mutant HD31L (antibody, IgG1, V domains shown)
VH: QVQLVQSGAEVKKPGASVKVSCEASGYTFTLKYLHWVRQAPGQGLEWMAWINPKSGGTFYAQNFKGRVTVTRDTSINTAYLELTSLRLDDTSTYYCARGRDYYDQGAADLWGQGTMVTVSS
VL: DIQLTQSPSSLSASVGDRVTITCRASQGINSVLAWYQQKPGKAPKLLLYAASKLESGVPSRFSGSGSGTDYTLTISSLQPEDFGTYYCQQYYSPVRTFGQGTKVEIKR
notes: also called X1 L
B13: 1D2 SDR mutant HD31T (antibody, IgG1, V domains shown)
VH: QVQLVQSGAEVKKPGASVKVSCEASGYTFTTKYLHWVRQAPGQGLEWMAWINPKSGGTFYAQNFKGRVTVTRDTSINTAYLELTSLRLDDTSTYYCARGRDYYDQGAADLWGQGTMVTVSS
VL: DIQLTQSPSSLSASVGDRVTITCRASQGINSVLAWYQQKPGKAPKLLLYAASKLESGVPSRFSGSGSGTDYTLTISSLQPEDFGTYYCQQYYSPVRTFGQGTKVEIKR
notes: also called X1 T
B14: 1D2 SDR mutant HD31V (antibody, IgG1, V domains shown)
VH: QVQLVQSGAEVKKPGASVKVSCEASGYTFTVKYLHWVRQAPGQGLEWMAWINPKSGGTFYAQNFKGRVTVTRDTSINTAYLELTSLRLDDTSTYYCARGRDYYDQGAADLWGQGTMVTVSS
VL: DIQLTQSPSSLSASVGDRVTITCRASQGINSVLAWYQQKPGKAPKLLLYAASKLESGVPSRFSGSGSGTDYTLTISSLQPEDFGTYYCQQYYSPVRTFGQGTKVEIKR
notes: also called X1 V
B15: 1D2 SDR mutant HD31S (antibody, IgG1, V domains shown)
VH: QVQLVQSGAEVKKPGASVKVSCEASGYTFTSKYLHWVRQAPGQGLEWMAWINPKSGGTFYAQNFKGRVTVTRDTSINTAYLELTSLRLDDTSTYYCARGRDYYDQGAADLWGQGTMVTVSS
VL: DIQLTQSPSSLSASVGDRVTITCRASQGINSVLAWYQQKPGKAPKLLLYAASKLESGVPSRFSGSGSGTDYTLTISSLQPEDFGTYYCQQYYSPVRTFGQGTKVEIKR
notes: also called X1 S

T1 sequence (P04141 18-144 limits assumed): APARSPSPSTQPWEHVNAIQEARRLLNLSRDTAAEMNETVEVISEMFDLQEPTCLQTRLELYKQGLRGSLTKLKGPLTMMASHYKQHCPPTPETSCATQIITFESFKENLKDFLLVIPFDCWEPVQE

The assay addresses T1, recombinant human GM-CSF (human, UniProt P04141 18-144).
T1 construct: also called rhGM-CSF; CSF2
Put plainly: ELISA on coated rhGM-CSF, UBA relative to 1D2. The source says:
Some of the residues in the CDRs are essential for epitope binding affinity and/or specificity. A number of computational methods were developed to detect these functional residues, generally known as ‘specificity-determining resides’ (SDRs). […] Based on the analysis, 7 amino acid residues in VH and 3 amino acid residues in VL were selected as the SDRs. The residues are labeled X₁ to X₁₀ for the ease of reference. The SDRs on VH are: Heavy chain D31 (HD31) (X₁), HK32 (X₂), HK54(X₃), HR100 (X₄), HY102 (X₅), HY103 (X₆) and HQ105 (X₇). The SDRs on VL are Light chain V32 (LV32) (X₈), LP94 (X₉) and LV95 (X₁₀). The SDRs were subsequently mutated by site-directed mutagenesis to other amino acids to generate mutant VH or VL clones. HEK293 cells were co-transfected with a vector encoding a mutant VH paired with a vector encoding a wild type VL or a vector encoding a wild type VH paired with a vector encoding a mutant VL. The antibody clones were harvested from the culture medium. The binding affinity of each antibody clone to human GM-CSF was tested by ELISA. The ELISA was done according to the following procedures. ELISA plate was coated with 50 μl of rhGM-CSF at 1 μg/mL. The plate was washed with 200 μl PBST for three times, followed by blocking with 1% BSA for 1 hour at room temperature. The antibody clones to be tested were diluted at 1:12000. 100 μl of the diluted antibodies were added to the cell at 100 μl/well. The plate was incubated at room temperature for 1 hour. The plate was then washed and incubated with 1:5000 diluted goat-anti-human secondary antibody conjugated with HRP at room temperature for one hour. The ELISA assay was developed with 100 μl developing buffer containing H₂O₂-Amplx Red per well in the dark for 5 min and the fluorescence intensity was read at Ex.530/Em.590 nm, with cutoff at 570 nm. The Unit Binding Activity (UBA) of each sample was calculated as the fluorescence signal/antibody clone dilution factor.
For orientation: ELISA stands for enzyme-linked immunosorbent assay.
As to B1, the “binding affinity % of 1D2” value turned out to be 66%. As for B2, the figure is 74%. Regarding B3, the “binding affinity % of 1D2” value came to 61%. As for B4, the “binding affinity % of 1D2” value is 79%. For the molecule B5, the “binding affinity % of 1D2” value came out at 72%. With B6, the “binding affinity % of 1D2” value was 73%. The result for B7 reads 74%. Consider B8, for which the “binding affinity % of 1D2” value stood at 63%.

With B9, the “binding affinity % of 1D2” value was found to be 58%. Regarding B10, the “binding affinity % of 1D2” value is 86%.

Turning to B11, the “binding affinity % of 1D2” value amounted to 69%. Take B12: the “binding affinity % of 1D2” value is 57%. For the molecule B13, the “binding affinity % of 1D2” value was found to be 44%. The result for B14 reads 71%. As to B15, the “binding affinity % of 1D2” value amounted to 47%.

These data come from US20210309732A1 (ELIXIRON IMMUNOTHERAPEUTICS HONG KONG, published 2021).
